The values that follow come from the nanobody polyreactivity screen of Harvey et al. (2022).

The nature of this series: yeast display, Sf9 membrane polyspecificity reagent, FACS + sequencing; frameworks hold sequencing errors. An outline of the steps:
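Galactose induction of a Saccharomyces cerevisiae BJ5465 synthetic nanobody display library ran 36–48 hours. The cells were then stained for 1 hour at 4 °C with 10% biotinylated, detergent-solubilized Sf9 membrane reagent, pulled down on streptavidin microbeads and FACS-sorted into low and high (top ~1%) gates on expression and reagent-binding fluorescence. Labels for polyreactivity follow the gate of origin.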
In the case of “QVQLVESGGGLVQAGGSLRLSCAASGFTFQRYAMGWYRQAPGKERELVAGITRRSGSTFYADSVKGRFTISRDNAKNNVYLLMNSLKPEDTAVYYCAATVPGLHWIYDFWGQGTQVTVSS”, the “polyreactivity (PSR sort gate)” value is reported as “high polyreactivity”.

Regarding “QVQLVESGGGLVQAGGSLRLSCAASGFTFQSNAMGWYRQAPGKERELVATISLTGGSTYYADSVKGRFTISRDNAKNTVYLQMNSLKPEDTAVYYCNAVRYASPYGYWGQGTQVTVSS”, the “polyreactivity (PSR sort gate)” value was “high polyreactivity”.

Consider “QVQLVESGGGLVQAGGSLRLSCAASGFTFQYYAMGWYRQAPGKERELVAAISRSGGSTYYADSVKGRFTISRDNAKNTVYLQMNSLKPEDTAVYYCAKDRVGARRTDYDYWGQGTQVTVSS”, for which the “polyreactivity (PSR sort gate)” value is on record as “high polyreactivity”.

In the case of “QVQLVESGGGLVQAGGSLRLSCAASGFTFQYYTMGWYRQAPGKERELVAAISGSGGRTYYADSVKGRFTISRDNAKNTVYLQMNSLKPEDTAVYYCAKVYNRVYYGKGDYWGQGTQVTVSS”, the “polyreactivity (PSR sort gate)” value is recorded as “high polyreactivity”.

On to “QVQLVESGGGLVQAGGSLRLSCAASGFTFRANGMGWYRQATGKERELVATITSGGTTNYADSVKGRFTISRDNAKNTVYLQMNSLKPEDTAVYYCAKRFGPAYFRLYDYWGQGTQVTVSS”, for which the “polyreactivity (PSR sort gate)” value is reported as “low polyreactivity”.

Regarding “QVQLVESGGGLVQAGGSLRLSCAASGFTFRAYAMGWYRQAPGKEREFVAAISRRGGSTSYADSVKGRFTISRDIAKNTVYLQMNSQKPEDTSVYYCAADVQEEYDYWGQGTQVTVSS”, the “polyreactivity (PSR sort gate)” value is on record as “high polyreactivity”.

As for “QVQLVESGGGLVQAGGSLRLSCAASGFTFRAYAMGWYRQAPGKERELVAAINISGGSTYYADSVKGRFTISRDNAKNTVYLQMNSLKPEDTAVYYCAADWPEDWYTEYGYWGQGTQVTVSS”, the “polyreactivity (PSR sort gate)” value is given as “low polyreactivity”.

As to “QVQLVESGGGLVQAGGSLRLSCAASGFTFRAYAMGWYRQAPGKERELVAAITSGTRTYYADSVKGRFTISRDNAKNTVYLQMNSLKPEDTAVYDCAVGFILPSTFTRMYYWGQGTQVTVSS”, the “polyreactivity (PSR sort gate)” value is listed as “high polyreactivity”.

As for “QVQLVESGGGLVQAGGSLRLSCAASGFTFRAYAMGWYRQAPGKERELVAGITRSGGSTHYADSVKGRFTISRDNAKNTVYLQMNSLKPEDTAVYYCNARYPYRGKRKPPDYWGQGTQVTVSS”, the “polyreactivity (PSR sort gate)” value is “high polyreactivity”.

“QVQLVESGGGLVQAGGSLRLSCAASGFTFRAYTMGWYRQAPGKERELVAAITYSGGRTYYADSVKGRFTISRDNAKNTVYLQMNSLKPEDTAVYYCATRGWALSEYYYWGQGTQVTVSS”: the “polyreactivity (PSR sort gate)” value is “high polyreactivity”.

In the case of “QVQLVESGGGLVQAGGSLRLSCAASGFTFRAYTMGWYRQAPGTERGLVAAITYSGGRTYYADSVKGRFTISRDNAKNTVYLQMNSLKPEDTAVYYCAAVRTKVWRGPEMDYWGQGTQVTVSS”, the “polyreactivity (PSR sort gate)” value is listed as “high polyreactivity”.

For the sequence “QVQLVESGGGLVQAGGSLRLSCAASGFTFRAYVMGWSRQAPGKERELVAAISRSGGSTYYADSVKGRLTISRDNAKNTVYLQMNSLKPEDTAVYYCAAGVPGPRVKIQARFDYWGQGTQVTVSS”, the “polyreactivity (PSR sort gate)” value is on record as “high polyreactivity”.

With “QVQLVESGGGLVQAGGSLRLSCAASGFTFRDYAMGWSRQAPGKERELVAAISRSGDSTYYADSVKGRFTISRDNAKNTVYLQMNSLKPEDTAVYYYAAKRRYTTYDYWGQGTQVTVSS”, the “polyreactivity (PSR sort gate)” value is “high polyreactivity”.

With “QVQLVESGGGLVQAGGSLRLSCAASGFTFRDYAMGWYRQAPGKEREFIADITFSGDNTRYADSVKGRFTISRDNAKNTVYLQMNSLKREDTAVYYCNADYLVSWLQFDYWGQGTQVTVSS”, the “polyreactivity (PSR sort gate)” value was “low polyreactivity”.

With “QVQLVESGGGLVQAGGSLRLSCAASGFTFRDYAMGWYRQAPGKERELVAAISFSGGRTFYADSVKGRFTISRDNAKNTVYLQMNSLKPEDTAVYYCNAQYLTYRYYPRRNLDYWGQGTQVTVSS”, the “polyreactivity (PSR sort gate)” value was “high polyreactivity”.

Consider “QVQLVESGGGLVQAGGSLRLSCAASGFTFRFNAMGWYIQAPGKERELVAAIRQSGGSTYYADSVKGRFTISRDNAKNTVYLQMNSLKPEDTAVYYCATRYFTGYGLRPQFYYWGQGTQVTVSS”, for which the “polyreactivity (PSR sort gate)” value is reported as “high polyreactivity”.
